Data published in patent publication US20260098102A1 (NATIONAL UNIVERSITY CORPORATION KOBE UNIVERSITY, published 2026).

How the values were obtained:
human SIRPB = target: T1, human SIRPB (human, UniProt O00241 30-398); experiment: flow cytometry on CHO-K1 cells expressing FLAG-tagged human SIRPB; PE anti-human IgG; MFI standardized to secondary antibody alone
T1 construct: whole, on cells; FLAG-tagged (pFLAG V5-DEST), on CHO-K1 cells; also called SIRPβ1; signal regulatory protein β1
Protocol: SIRPβ1 (signal regulatory protein β1: the amino acid sequence thereof is published as RefSeq accession number NP_006056) and SIRPγ (signal regulatory protein γ: the amino acid sequence thereof is published as RefSeq accession number NP_061026) are molecules belonging to the SIRPA family. In the present invention, “SIRPα” may be referred to as “SIRPA,” “SIRPβ1” may be referred to as […] and “SIRPγ” may be referred to as “SIRPG.” CHO-K1 cells were prepared in a 10% FBS-containing Ham's F-12K medium at 3.3×10⁵ cells/mL and cultured overnight at 37° C. under a 5% CO₂ condition. pFLAG V5-DEST-human SIRPβ, pFLAG V5-DEST-human SIRPG, or pFLAG V5-DEST was introduced into the cells using Lipofectamine LTX (Invitrogen), and cells were cultured in a 10% FBS-containing Ham's F-12K medium at 37° C. under a 5% CO₂ condition for 24 hours. The obtained introduced cells were collected and seeded on a 96-well plate. After the culture supernatant was removed, 100 μL per well of various anti-human SIRPA antibodies or various control human IgG was added to each of various gene introduced cells at a final concentration of 0 to 10,000 ng/mL, and the mixture was allowed to stand at 4° C. for 25 minutes. After the mixture was centrifuged, the supernatant was removed, and cells were washed twice with 5% FBS-containing PBS. After the mixture was centrifuged, the supernatant was removed, 50 μL per well of a 1/400 diluted solution of PE Mouse anti-Human IgG antibody (BioLegend) was added, and the mixture was allowed to stand at 4° C. for 25 minutes. After the mixture was centrifuged, the supernatant was removed, and cells were washed twice with 5% FBS-containing PBS.
After the mixture was centrifuged, and the supernatant was removed, cells were suspended in 100 μL per well of 1× BD Stabilizing Fixative (Becton Dickinson), and the cell count was measured by flow cytometry (FACS Canto II: Becton Dickinson). For data analysis, FlowJo (TreeStar) was used. Cells were characterized by detecting forward scattered (FSC) light and side-scattered (SSC) light, and then the mean fluorescence intensity of PE was calculated. Binding of various antibodies to the family molecules was calculated by standardizing the fluorescence intensity using the mean fluorescence intensity of a sample in which the secondary antibody alone was allowed to react.

human SIRPA_V1 protein [1] = target: T2, human SIRPA_V1 protein (human, UniProt P78324 31-504); experiment: blocking cell-based ELISA: peroxidase-labeled CD47-Fc (1 µg/mL) on 293α cells expressing SIRPA_V1
T2 construct: Expressed on 293α cells from pcDNA3.2 V5-DEST or pFLAG V5-DEST (FLAG-tagged) vectors; also called human SIRPA Variant 1; hSIRPA V1
T2 sequence (P78324 31-504 limits assumed): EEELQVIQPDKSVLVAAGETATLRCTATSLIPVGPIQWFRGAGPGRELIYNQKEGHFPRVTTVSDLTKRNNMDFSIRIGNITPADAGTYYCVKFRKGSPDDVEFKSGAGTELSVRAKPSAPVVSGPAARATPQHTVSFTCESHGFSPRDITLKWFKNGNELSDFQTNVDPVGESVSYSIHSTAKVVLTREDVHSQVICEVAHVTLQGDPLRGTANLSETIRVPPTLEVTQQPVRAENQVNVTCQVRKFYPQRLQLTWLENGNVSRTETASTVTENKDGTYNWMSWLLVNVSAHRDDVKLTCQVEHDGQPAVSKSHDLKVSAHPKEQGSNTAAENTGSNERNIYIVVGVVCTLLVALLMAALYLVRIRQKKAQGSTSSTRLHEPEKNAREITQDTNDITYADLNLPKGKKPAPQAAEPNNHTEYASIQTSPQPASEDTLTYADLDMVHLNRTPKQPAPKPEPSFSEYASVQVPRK
Protocol: After the culture supernatant of the human SIRPA_V1 or V2 expression vector-introduced 293 cells prepared in Example 9)-1 was removed, 50 μL per well of various anti-SIRPA antibodies or various control Human IgG diluted with 5% FBS-containing PBS to a final concentration of 0 to 10,000 ng/ml was added to each of pcDNA3.2 V5-DEST-SIRPA_V1 or V2-introduced 293α cells, immediately followed by addition of 50 µL per well of peroxidase-labeled CD47-Fc prepared with 5% FBS-containing PBS at 1 μg/mL, and the mixture was allowed to stand at 4° C. for one hour. Thereafter, the SIRPA-CD47 binding inhibitory activity was evaluated in the same manner as in 1)-6-3.

SIRPA_V1_IgV = target: T3, SIRPA_V1_IgV (human, UniProt P78324 31-149); experiment: SPR Biacore T200, antibody captured on anti-human IgG (Fc), SIRPA_V1_IgV as analyte (0.25 to 16 nM), 1:1 model
T3 construct: Secreted recombinant protein from FreeStyle 293F cells
T3 sequence (P78324 other isoform, or with tags, fused parts or gaps limits assumed): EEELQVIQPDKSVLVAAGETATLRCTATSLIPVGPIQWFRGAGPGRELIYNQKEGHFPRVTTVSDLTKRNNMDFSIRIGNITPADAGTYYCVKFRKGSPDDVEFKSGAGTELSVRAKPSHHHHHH
Protocol: The dissociation constants were measured by a capture method comprising capturing each antibody as a ligand to an Anti-Human IgG (Fc) antibody immobilized using Human Antibody Capture Kit (GE Healthcare Bioscience Corp.) and measuring an antigen as an analyte, using Biacore T200 (GE Healthcare Bioscience Corp.). HBS-EP+ (GE Healthcare Bioscience Corp.) was used as a running buffer, and CM5 (GE Healthcare Bioscience Corp.) was used as a sensor chip. Onto the chip, 2 μg/mL of various antibodies were added at 10 μL/min for 30 seconds, then a serially diluted solution (0.25 to 16 nM) of the human SIRPA protein as an antigen was added at a flow rate of 30 μL/min for 120 seconds, and subsequently the dissociation phase for 600 seconds was monitored. As a regenerant, 3 M magnesium chloride (GE Healthcare Bioscience Corp.) was added at a flow rate of 20 μL/min for 30 seconds. For data analysis, a binding rate constant (ka), a dissociation rate constant (kd), and a dissociation constant (KD; KD=kd/ka) were calculated using a 1:1 binding model.

human SIRPA_V1 protein [2] = target: T2, human SIRPA_V1 protein; experiment: cell-based ELISA on 293α cells expressing FLAG-tagged SIRPA_V1; Abs 490 normalized to FLAG tag
Protocol: (§1) The 293α cells [described in Example 1)-6] were prepared in a 10% FBS-containing DMEM medium to 5×10⁵ cells/mL. pFLAG V5-DEST-SIRPA_V1, pFLAG V5-DEST-SIRPA_V2, or pFLAG V5-DEST was introduced into the cells using Lipofectamine LTX (Invitrogen), followed by addition of 100 μL per well to a 96-well plate (Corning Incorporated), and cells were cultured overnight in the 10% FBS-containing DMEM medium at 37° C. under a 5% CO₂ condition. The obtained introduced cells were used for cell-based ELISA in a state that they adhered to each other. After the culture supernatant was removed, 50 μL per well of the cD13 (IgG2 and IgG4pf), cF44 (IgG1, IgG2, IgG4p, and IgG4pf), and cF63 (IgG2 and IgG4pf) antibodies prepared in Examples 3 and 4 were added to each of pFLAG V5-DEST-SIRPA_V1, pFLAG V5-DEST-SIRPA_V2, or pFLAG V5-DEST-introduced cells at final concentrations of 0 to 10,000 ng/mL, and the mixture was allowed to stand at 4° C. for one hour. Further, 50 μL per well of anti-FLAG M2 antibody (SIGMA) diluted with 5% FBS-containing PBS to a final concentration of 10,000 ng/mL was added to a well for detecting expression of each SIRPA construct, and the mixture was allowed to stand at 4° C. for one hour. The cells in the well were washed once with 5% FBS-containing PBS, followed by addition of Peroxidase AffiniPure F(ab′)₂ Fragment Goat Anti-Human IgG, Fcγ Fragment Specific (Jackson ImmunoResearch) diluted 1000-fold with 5% FBS-containing PBS, and the mixture was allowed to stand at 4° C. for one hour. The cells in the well were washed five times with 5% FBS-containing PBS, followed by addition of 100 μL per well of an OPD coloration solution [o-phenylenediamine dihydrochloride (Wako Pure Chemical Industries, Ltd.) and H₂O₂ were dissolved in an OPD solution (0.05 M trisodium citrate, 0.1 M disodium hydrogen phosphate dodecahydrate, pH 4.5) at 0.4 mg/mL and 0.6% (v/v), respectively]. A coloration reaction was performed with stirring occasionally, 100 μL per well of 1 M HCl was added to terminate the coloration reaction, and then absorbance at 490 nm was measured with a plate reader ARVO (PerkinElmer Inc.). Binding of the human chimeric anti-human SIRPA antibodies to each construct was standardized by expression of the FLAG tag.

human SIRPA_V1 protein [3] = target: T2, human SIRPA_V1 protein; experiment: blocking cell-based ELISA: peroxidase-labeled CD47-Fc (10,000 ng/mL) on 293α cells expressing SIRPA_V1; y axis = CD47-Fc signal in % of no antibody [i]
Protocol: After the culture supernatant of the human SIRPA and monkey SIRPA expression vector-introduced 293α cells prepared in Examples 5)-1 and 5)-2, respectively, was removed, 50 μL per well of cD13 (IgG2 and IgG4pf), cF44 (four different constant regions IgG1, IgG2, IgG4p, and IgG4pf), and cF63 (IgG2 and IgG4pf) diluted with 5% FBS-containing PBS to final concentrations of 0 to 10,000 ng/mL were added to each of pcDNA3.2 V5-DEST-SIRPA_V1, pcDNA3.2 V5-DEST-monkey SIRPA, and pcDNA3.2 V5-DEST-introduced 293α cells, immediately followed by addition of 50 μL per well of peroxidase-labeled CD47-Fc prepared in 5% FBS-containing PBS at a final concentration of 10,000 ng/ml, and the mixture was allowed to stand at 4° C. for one hour. Thereafter, the SIRPA-CD47 binding inhibitory activity was evaluated in the same manner as in 1)-6-3.

human SIRPA_V2 protein [4] = target: T4, human SIRPA_V2 protein (human, UniProt P78324 31-504); experiment: blocking cell-based ELISA: peroxidase-labeled CD47-Fc (10,000 ng/mL) on 293α cells expressing SIRPA_V2; y axis = CD47-Fc signal in % of no antibody [ii]
T4 construct: Expressed on 293α cells from pcDNA3.2 V5-DEST or pFLAG V5-DEST (FLAG-tagged) vectors; also called human SIRPA Variant 2; ECD variant (full-length, amino acids 1 to 504)
T4 sequence (P78324 other isoform, or with tags, fused parts or gaps limits assumed): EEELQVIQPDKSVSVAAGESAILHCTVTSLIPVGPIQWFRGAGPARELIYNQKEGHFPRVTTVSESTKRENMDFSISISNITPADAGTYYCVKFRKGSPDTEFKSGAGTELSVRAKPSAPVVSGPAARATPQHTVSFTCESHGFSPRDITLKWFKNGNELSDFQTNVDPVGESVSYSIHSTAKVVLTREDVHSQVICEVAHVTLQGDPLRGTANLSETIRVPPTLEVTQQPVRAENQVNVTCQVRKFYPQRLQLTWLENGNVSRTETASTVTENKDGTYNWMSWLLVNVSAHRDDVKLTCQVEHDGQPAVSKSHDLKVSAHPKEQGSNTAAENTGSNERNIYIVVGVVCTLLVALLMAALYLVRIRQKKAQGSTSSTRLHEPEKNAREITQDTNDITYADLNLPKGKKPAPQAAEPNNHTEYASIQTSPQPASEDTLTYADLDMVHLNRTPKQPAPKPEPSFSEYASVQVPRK

human SIRPA_V2 protein [5] = target: T4, human SIRPA_V2 protein; experiment: cell-based ELISA on 293α cells expressing FLAG-tagged SIRPA_V2; Abs 490 normalized to FLAG tag
Protocol: as §1

T1 sequence (O00241 30-398): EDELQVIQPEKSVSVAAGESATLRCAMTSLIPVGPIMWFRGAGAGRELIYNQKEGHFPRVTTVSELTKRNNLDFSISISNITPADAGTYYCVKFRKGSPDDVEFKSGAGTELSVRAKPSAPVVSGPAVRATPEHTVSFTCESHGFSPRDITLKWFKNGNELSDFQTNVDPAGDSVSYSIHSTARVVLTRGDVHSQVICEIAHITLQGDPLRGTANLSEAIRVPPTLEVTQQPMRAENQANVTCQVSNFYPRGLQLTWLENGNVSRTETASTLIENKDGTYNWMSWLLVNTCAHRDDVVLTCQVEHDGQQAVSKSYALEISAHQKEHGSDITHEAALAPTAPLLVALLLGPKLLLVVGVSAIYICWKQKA

Binder	EC50 (read off the curve) (human SIRPB)	IC50 (human SIRPA_V1 protein [1])	Kd (SIRPA_V1_IgV)	EC50 (read off the curve) (human SIRPA_V1 protein [2])	IC50 (read off the curve) (human SIRPA_V1 protein [3])	IC50 (read off the curve) (human SIRPA_V2 protein [4])	EC50 (read off the curve) (human SIRPA_V2 protein [5])
OSE-172 (antibody, human IgG4 S228P, kappa, V domains shown, IgG4Pro heavy chain) VH: EVQLVQSGAEVKKPGESLRISCKASGYSFTSYWVHWVRQMPGKGLEWMGNIDPSDSDTHYSPSFQGHVTLSVDKSISTAYLQLSSLKASDTAMYYCVRGGTGTLAYFAYWGQGTLVTVSS VL: DVVMTQSPLSLPVTLGQPASISCRSSQSLVHSYGNTYLYWFQQRPGQSPRLLIYRVSNRFSGVPDRFSGSGSGTDFTLKISRVEAEDVGVYYCFQGTHVPYTFGGGTKVEIKR	~0.04 µg/mL	2.32 µg/mL	11.7 nM	–	–	–	–
cF44 (IgG1) (antibody, V domains shown, Human IgG1 constant region; also called cF44 IgG1 type) VH: EVQLVESGGGLVQPGRSLKLSCAASGFTFSNYYMAWVRQAPTKGLEWVTYITTGGGSTYFRDSVKGRFTISRDNAESTLYLQMDSLRSEDTATYYCTAANYGGSYFDYWGQGVMVTVSS VL: DVQMTQSPSNLAASPGESVSINCKASKSISKYLAWYQQKPGKANKLLIYSGSTLQSGTPSRFSGSGSGTDFTLTIRNLEPEDFGLYYCQQHNEYPPTFGAGTKLELK	–	–	–	~0.04 µg/mL	~0.4 µg/mL	~0.4 µg/mL	~0.04 µg/mL
cF44 (IgG2) (antibody, V domains shown, Human IgG2 constant region; also called cF44 IgG2 type) VH: EVQLVESGGGLVQPGRSLKLSCAASGFTFSNYYMAWVRQAPTKGLEWVTYITTGGGSTYFRDSVKGRFTISRDNAESTLYLQMDSLRSEDTATYYCTAANYGGSYFDYWGQGVMVTVSS VL: DVQMTQSPSNLAASPGESVSINCKASKSISKYLAWYQQKPGKANKLLIYSGSTLQSGTPSRFSGSGSGTDFTLTIRNLEPEDFGLYYCQQHNEYPPTFGAGTKLELK	–	–	–	~0.04 µg/mL	~0.4 µg/mL	~0.3 µg/mL	~0.04 µg/mL
cF44 (IgG4p) (antibody, V domains shown, Human IgG4p (PRO mutation) constant region; also called cF44 IgG4p type) VH: EVQLVESGGGLVQPGRSLKLSCAASGFTFSNYYMAWVRQAPTKGLEWVTYITTGGGSTYFRDSVKGRFTISRDNAESTLYLQMDSLRSEDTATYYCTAANYGGSYFDYWGQGVMVTVSS VL: DVQMTQSPSNLAASPGESVSINCKASKSISKYLAWYQQKPGKANKLLIYSGSTLQSGTPSRFSGSGSGTDFTLTIRNLEPEDFGLYYCQQHNEYPPTFGAGTKLELK	–	–	–	~0.05 µg/mL	~0.5 µg/mL	~0.4 µg/mL	~0.05 µg/mL
